{"source": "patent US20230321287A1", "about": "“RADIOLABELLED GRPR-ANTAGONIST FOR USE AS THERAGNOSTIC” (NOVARTIS AG, priority 2019, published 2023)", "assay": "clinical", "settings": "human, Relative radiotracer uptake", "description": "The primary objective was to characterize preliminary targeting properties of [68Ga] NeoB in patients with malignancies known to overexpress GRPR. The primary efficacy endpoints were: • Number and location of tumor lesions detected by [68Ga]-NeoBOMB1 overall and for each tumor type • Calculation of the ratio tumor/background standard uptake value (SUV) and %injected dose per gram of tissue (ID/g) and calculation of absorbed dose (mGy/MBq) in tumor overall and for each tumor type.\nAccordingly, highest relative tracer uptake following administration of a bombesin antagonist is expected in pancreas, kidney, and liver (Roivainen et al, 2013)."}
{"smiles": "CC(C)CC(CC(C)C)NC(=O)[C@H](Cc1cnc[nH]1)NC(=O)CNC(=O)[C@@H](NC(=O)[C@H](C)NC(=O)[C@H](Cc1c[nH]c2ccccc12)NC(=O)[C@H](CCC(N)=O)NC(=O)[C@@H](Cc1ccccc1)NC(=O)COCC(=O)Nc1ccc(CNC(=O)CN2CCN(CC(=O)O)CCN(CC(=O)O)CCN(CC(=O)O)CC2)cc1)C(C)C", "note": "[[68Ga]-NeoB, metal not drawn]", "values": [{"measurement": "tissue uptake at 0.25 h", "setting": "Liver, patient FR01-008, 15 min/38.6 min actual", "result": 0.00794, "unit": "%ID/g"}, {"measurement": "tissue uptake at 0.25 h", "setting": "alveolar-interstitial (lungs), total radioactivity, patient FR01-009, 15 min/17.8 min actual", "result": 0.00124, "unit": "%ID/g"}, {"measurement": "tissue uptake at 1 h", "setting": "alveolar-interstitial (lungs), total radioactivity, patient FR01-009, 60 min/60.7 min actual", "result": 0.000884, "unit": "%ID/g"}, {"measurement": "tissue uptake at 2 h", "setting": "alveolar-interstitial (lungs), total radioactivity, patient FR01-009, 120 min/123.9 min actual", "result": 0.000591, "unit": "%ID/g"}, {"measurement": "tissue uptake at 4 h", "setting": "alveolar-interstitial (lungs), total radioactivity, patient FR01-009, 240 min/207.9 min actual", "result": 0.000386, "unit": "%ID/g"}, {"measurement": "tissue uptake at 0.25 h", "setting": "heart wall, total radioactivity, patient FR01-009, 15 min/17.8 min actual", "result": 0.0034, "unit": "%ID/g"}, {"measurement": "tissue uptake at 1 h", "setting": "heart wall, total radioactivity, patient FR01-009, 60 min/60.7 min actual", "result": 0.00207, "unit": "%ID/g"}, {"measurement": "tissue uptake at 2 h", "setting": "heart wall, total radioactivity, patient FR01-009, 120 min/123.9 min actual", "result": 0.00142, "unit": "%ID/g"}, {"measurement": "tissue uptake at 4 h", "setting": "heart wall, total radioactivity, patient FR01-009, 240 min/207.9 min actual", "result": 0.000928, "unit": "%ID/g"}, {"measurement": "tissue uptake at 0.25 h", "setting": "kidneys, total radioactivity, patient FR01-009, 15 min/17.8 min actual", "result": 0.0048, "unit": "%ID/g"}, {"measurement": "tissue uptake at 1 h", "setting": "kidneys, total radioactivity, patient FR01-009, 60 min/60.7 min actual", "result": 0.0038, "unit": "%ID/g"}, {"measurement": "tissue uptake at 2 h", "setting": "kidneys, total radioactivity, patient FR01-009, 120 min/123.9 min actual", "result": 0.00505, "unit": "%ID/g"}, {"measurement": "tissue uptake at 4 h", "setting": "kidneys, total radioactivity, patient FR01-009, 240 min/207.9 min actual", "result": 0.00278, "unit": "%ID/g"}, {"measurement": "tissue uptake at 1 h", "setting": "liver, total radioactivity, patient FR01-008, 60 min/62.6 min actual", "result": 0.00296, "unit": "%ID/g"}, {"measurement": "tissue uptake at 2 h", "setting": "liver, total radioactivity, patient FR01-008, 120 min/123.2 min actual", "result": 0.00197, "unit": "%ID/g"}, {"measurement": "tissue uptake at 4 h", "setting": "liver, total radioactivity, patient FR01-008, 240 min/221.1 min actual", "result": 0.00162, "unit": "%ID/g"}, {"measurement": "tissue uptake at 0.25 h", "setting": "liver, total radioactivity, patient FR01-009, 15 min/17.8 min actual", "result": 0.00866, "unit": "%ID/g"}, {"measurement": "tissue uptake at 1 h", "setting": "liver, total radioactivity, patient FR01-009, 60 min/60.7 min actual", "result": 0.00564, "unit": "%ID/g"}, {"measurement": "tissue uptake at 2 h", "setting": "liver, total radioactivity, patient FR01-009, 120 min/123.9 min actual", "result": 0.00428, "unit": "%ID/g"}, {"measurement": "tissue uptake at 4 h", "setting": "liver, total radioactivity, patient FR01-009, 240 min/207.9 min actual", "result": 0.00317, "unit": "%ID/g"}, {"measurement": "tissue uptake at 0.25 h", "setting": "pancreas, total radioactivity, patient FR01-008, 15 min/38.6 min actual", "result": 0.0471, "unit": "%ID/g"}, {"measurement": "tissue uptake at 1 h", "setting": "pancreas, total radioactivity, patient FR01-008, 60 min/62.6 min actual", "result": 0.0484, "unit": "%ID/g"}, {"measurement": "tissue uptake at 2 h", "setting": "pancreas, total radioactivity, patient FR01-008, 120 min/123.2 min actual", "result": 0.0545, "unit": "%ID/g"}, {"measurement": "tissue uptake at 4 h", "setting": "pancreas, total radioactivity, patient FR01-008, 240 min/221.1 min actual", "result": 0.0628, "unit": "%ID/g"}, {"measurement": "tissue uptake at 0.25 h", "setting": "pancreas, total radioactivity, patient FR01-009, 15 min/17.8 min actual", "result": 0.0215, "unit": "%ID/g"}, {"measurement": "tissue uptake at 1 h", "setting": "pancreas, total radioactivity, patient FR01-009, 60 min/60.7 min actual", "result": 0.0291, "unit": "%ID/g"}, {"measurement": "tissue uptake at 2 h", "setting": "pancreas, total radioactivity, patient FR01-009, 120 min/123.9 min actual", "result": 0.0345, "unit": "%ID/g"}, {"measurement": "tissue uptake at 4 h", "setting": "pancreas, total radioactivity, patient FR01-009, 240 min/207.9 min actual", "result": 0.0374, "unit": "%ID/g"}, {"measurement": "tissue uptake at 0.25 h", "setting": "red (active) marrow, total radioactivity, patient FR01-008, 15 min/38.6 min actual", "result": 0.00331, "unit": "%ID/g"}, {"measurement": "tissue uptake at 1 h", "setting": "red (active) marrow, total radioactivity, patient FR01-008, 60 min/62.6 min actual", "result": 0.00116, "unit": "%ID/g"}, {"measurement": "tissue uptake at 2 h", "setting": "red (active) marrow, total radioactivity, patient FR01-008, 120 min/123.2 min actual", "result": 0.000916, "unit": "%ID/g"}, {"measurement": "tissue uptake at 4 h", "setting": "red (active) marrow, total radioactivity, patient FR01-008, 240 min/221.1 min actual", "result": 0.000346, "unit": "%ID/g"}, {"measurement": "tissue uptake at 0.25 h", "setting": "red (active) marrow, total radioactivity, patient FR01-009, 15 min/17.8 min actual", "result": 0.00186, "unit": "%ID/g"}, {"measurement": "tissue uptake at 1 h", "setting": "red (active) marrow, total radioactivity, patient FR01-009, 60 min/60.7 min actual", "result": 0.00136, "unit": "%ID/g"}, {"measurement": "tissue uptake at 2 h", "setting": "red (active) marrow, total radioactivity, patient FR01-009, 120 min/123.9 min actual", "result": 0.000998, "unit": "%ID/g"}, {"measurement": "tissue uptake at 4 h", "setting": "red (active) marrow, total radioactivity, patient FR01-009, 240 min/207.9 min actual", "result": 0.000722, "unit": "%ID/g"}, {"measurement": "tissue uptake at 0.25 h", "setting": "spleen, total radioactivity, patient FR01-008, 15 min/38.6 min actual", "result": 0.00409, "unit": "%ID/g"}, {"measurement": "tissue uptake at 1 h", "setting": "spleen, total radioactivity, patient FR01-008, 60 min/62.6 min actual", "result": 0.00211, "unit": "%ID/g"}, {"measurement": "tissue uptake at 2 h", "setting": "spleen, total radioactivity, patient FR01-008, 120 min/123.2 min actual", "result": 0.00141, "unit": "%ID/g"}, {"measurement": "tissue uptake at 0.25 h", "setting": "spleen, total radioactivity, patient FR01-009, 15 min/17.8 min actual", "result": 0.00338, "unit": "%ID/g"}, {"measurement": "tissue uptake at 1 h", "setting": "spleen, total radioactivity, patient FR01-009, 60 min/60.7 min actual", "result": 0.00256, "unit": "%ID/g"}, {"measurement": "tissue uptake at 2 h", "setting": "spleen, total radioactivity, patient FR01-009, 120 min/123.9 min actual", "result": 0.00191, "unit": "%ID/g"}, {"measurement": "tissue uptake at 4 h", "setting": "spleen, total radioactivity, patient FR01-009, 240 min/207.9 min actual", "result": 0.00145, "unit": "%ID/g"}, {"measurement": "tissue uptake at 0.25 h", "setting": "tumor lesion T1-lungL, total radioactivity, patient FR01-009, 15 min/17.8 min actual", "result": 0.00367, "unit": "%ID/g"}, {"measurement": "tissue uptake at 1 h", "setting": "tumor lesion T1-lungL, total radioactivity, patient FR01-009, 60 min/60.7 min actual", "result": 0.00455, "unit": "%ID/g"}, {"measurement": "tissue uptake at 2 h", "setting": "tumor lesion T1-lungL, total radioactivity, patient FR01-009, 120 min/123.9 min actual", "result": 0.00481, "unit": "%ID/g"}, {"measurement": "tissue uptake at 4 h", "setting": "tumor lesion T1-lungL, total radioactivity, patient FR01-009, 240 min/207.9 min actual", "result": 0.00385, "unit": "%ID/g"}, {"measurement": "tissue uptake at 0.25 h", "setting": "tumor lesion T2-lungR, total radioactivity, patient FR01-009, 15 min/17.8 min actual", "result": 0.00466, "unit": "%ID/g"}, {"measurement": "tissue uptake at 1 h", "setting": "tumor lesion T2-lungR, total radioactivity, patient FR01-009, 60 min/60.7 min actual", "result": 0.00463, "unit": "%ID/g"}, {"measurement": "tissue uptake at 2 h", "setting": "tumor lesion T2-lungR, total radioactivity, patient FR01-009, 120 min/123.9 min actual", "result": 0.00377, "unit": "%ID/g"}, {"measurement": "tissue uptake at 4 h", "setting": "tumor lesion T2-lungR, total radioactivity, patient FR01-009, 240 min/207.9 min actual", "result": 0.00248, "unit": "%ID/g"}, {"measurement": "tissue uptake at 0.25 h", "setting": "tumor lesion T3-liverL, total radioactivity, patient FR01-009, 15 min/17.8 min actual", "result": 0.0135, "unit": "%ID/g"}, {"measurement": "tissue uptake at 1 h", "setting": "tumor lesion T3-liverL, total radioactivity, patient FR01-009, 60 min/60.7 min actual", "result": 0.018, "unit": "%ID/g"}, {"measurement": "tissue uptake at 2 h", "setting": "tumor lesion T3-liverL, total radioactivity, patient FR01-009, 120 min/123.9 min actual", "result": 0.00984, "unit": "%ID/g"}, {"measurement": "tissue uptake at 4 h", "setting": "tumor lesion T3-liverL, total radioactivity, patient FR01-009, 240 min/207.9 min actual", "result": 0.0178, "unit": "%ID/g"}, {"measurement": "tissue uptake at 0.25 h", "setting": "tumor lesion T4-liverR1, total radioactivity, patient FR01-009, tumor lesion T4-liverR1, 15 min/17.8 min actual", "result": 0.013, "unit": "%ID/g"}, {"measurement": "tissue uptake at 1 h", "setting": "tumor lesion T4-liverR1, total radioactivity, patient FR01-009, tumor lesion T4-liverR1, 60 min/60.7 min actual", "result": 0.014, "unit": "%ID/g"}, {"measurement": "tissue uptake at 2 h", "setting": "tumor lesion T4-liverR1, total radioactivity, patient FR01-009, tumor lesion T4-liverR1, 120 min/123.9 min actual", "result": 0.0153, "unit": "%ID/g"}, {"measurement": "tissue uptake at 4 h", "setting": "tumor lesion T4-liverR1, total radioactivity, patient FR01-009, tumor lesion T4-liverR1, 240 min/207.9 min actual", "result": 0.0116, "unit": "%ID/g"}, {"measurement": "tissue uptake at 0.25 h", "setting": "tumor lesion T5-liverR2, total radioactivity, patient FR01-009, tumor lesion T5-liverR2, 15 min/17.8 min actual", "result": 0.015, "unit": "%ID/g"}, {"measurement": "tissue uptake at 1 h", "setting": "tumor lesion T5-liverR2, total radioactivity, patient FR01-009, tumor lesion T5-liverR2, 60 min/60.7 min actual", "result": 0.0193, "unit": "%ID/g"}, {"measurement": "tissue uptake at 2 h", "setting": "tumor lesion T5-liverR2, total radioactivity, patient FR01-009, tumor lesion T5-liverR2, 120 min/123.9 min actual", "result": 0.022, "unit": "%ID/g"}]}
